# From PMC9705548, “Altered tRNA processing is linked to a distinct and unusual La protein in Tetrahymena thermophila”
# Where a chain is given by its changes, count along the chain named.
# B1: pre-tRNA LeuAAG 3'-trailer only (structured_RNA)
# RNA: GAUGAAGUGGCCGAGCGGUCUAAGGCGGUAGAUUAAGGCUCUAUUCCGAAAGGGCGCGAGUUCGAAUCUCGCCUUCAUCAGAUUUUU
# B2: pre-tRNA GlnUUA 3'-trailer only (structured_RNA)
# RNA: GGUUCCAUAGUAUAGUGGUUAGUACUGGGGACUUUAAAUCCCUUGACCUGGGUUCGAAUCCCAGUGGGACCUGCUUUUU
# B3: pre-tRNA GlnUUA 5'-leader only (structured_RNA)
# RNA: GCAUGUCCGGUUCCAUAGUAUAGUGGUUAGUACUGGGGACUUUAAAUCCCUUGACCUGGGUUCGAAUCCCAGUGGGACCU
# B4: pre-tRNA LeuAAG 5'-leader only (+5'PPP) (structured_RNA)
# RNA: GAGCGAAGAUGAAGUGGCCGAGCGGUCUAAGGCGGUAGAUUAAGGCUCUAUUCCGAAAGGGCGCGAGUUCGAAUCUCGCCUUCAUCA
# B5: mature tRNA LeuAAG (structured_RNA)
# RNA: GAUGAAGUGGCCGAGCGGUCUAAGGCGGUAGAUUAAGGCUCUAUUCCGAAAGGGCGCGAGUUCGAAUCUCGCCUUCAUCA
# B6: mature tRNA GlnUUA (structured_RNA)
# RNA: GGUUCCAUAGUAUAGUGGUUAGUACUGGGGACUUUAAAUCCCUUGACCUGGGUUCGAAUCCCAGUGGGACCU
# B7: pre-tRNA GlnUUA 5' 3' (structured_RNA)
# RNA: GCAUGUCCGGUUCCAUAGUAUAGUGGUUAGUACUGGGGACUUUAAAUCCCUUGACCUGGGUUCGAAUCCCAGUGGGACCUGCUUUUU
# B8: pre-tRNA LeuAAG 5' 3' (structured_RNA)
# RNA: GAGCGAAGAUGAAGUGGCCGAGCGGUCUAAGGCGGUAGAUUAAGGCUCUAUUCCGAAAGGGCGCGAGUUCGAAUCUCGCCUUCAUCAGAUUUUU
# Experiments:
# Mlp1 [1] = molecular target: T1, Mlp1 (Tetrahymena thermophila, UniProt Q23RK6 1-340); assay: EMSA; 20 mM Tris-HCl pH 7.4, 100 mM KCl, 1 mM EDTA, 5 mM beta-mercaptoethanol, 10% glycerol; ~0.1 nM RNA; 30 min at 30 C; 8% native PAGE at 4 C; conditions: protein: recombinant, tags: N-terminal 6xHis (pET28a)
# T1 sequence: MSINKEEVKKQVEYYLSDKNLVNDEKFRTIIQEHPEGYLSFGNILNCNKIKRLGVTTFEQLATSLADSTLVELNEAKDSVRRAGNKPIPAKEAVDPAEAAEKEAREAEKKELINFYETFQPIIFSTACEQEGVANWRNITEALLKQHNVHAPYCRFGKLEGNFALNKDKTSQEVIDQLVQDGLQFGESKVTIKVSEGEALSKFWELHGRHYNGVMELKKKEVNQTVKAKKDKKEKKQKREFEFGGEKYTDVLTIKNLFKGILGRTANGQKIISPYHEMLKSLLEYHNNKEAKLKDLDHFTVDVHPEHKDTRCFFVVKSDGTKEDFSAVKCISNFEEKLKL
# Mlp1 [2] = molecular target: T1, Mlp1; assay: competition; EMSA: 20 mM Tris-HCl pH 7.4, 100 mM KCl, 1 mM EDTA, 5 mM beta-mercaptoethanol, 10% glycerol; ~0.1 nM RNA refolded from 95 C; 30 min at 30 C; 8% native PAGE at 4 C; conditions: protein: recombinant; tags: N-terminal 6xHis (pET28a); label: none
# Mlp1 [3] = molecular target: T1, Mlp1; assay: EMSA; EMSA: 20 mM Tris-HCl pH 7.4, 100 mM KCl, 1 mM EDTA, 5 mM beta-mercaptoethanol, 10% glycerol; ~0.1 nM RNA refolded from 95 C; 30 min at 30 C; 8% native PAGE at 4 C; conditions: protein: recombinant, tags: N-terminal 6xHis (pET28a)
# hLa = molecular target: T2, hLa (Homo sapiens, UniProt P05455 1-408); assay: competition; EMSA: 20 mM Tris-HCl pH 7.4, 100 mM KCl, 1 mM EDTA, 5 mM beta-mercaptoethanol, 10% glycerol; ~0.1 nM RNA refolded from 95 C; 30 min at 30 C; 8% native PAGE at 4 C; conditions: protein: recombinant; tags: 6xHis (encoded in reverse primer, pET28a); label: none
# T2 sequence: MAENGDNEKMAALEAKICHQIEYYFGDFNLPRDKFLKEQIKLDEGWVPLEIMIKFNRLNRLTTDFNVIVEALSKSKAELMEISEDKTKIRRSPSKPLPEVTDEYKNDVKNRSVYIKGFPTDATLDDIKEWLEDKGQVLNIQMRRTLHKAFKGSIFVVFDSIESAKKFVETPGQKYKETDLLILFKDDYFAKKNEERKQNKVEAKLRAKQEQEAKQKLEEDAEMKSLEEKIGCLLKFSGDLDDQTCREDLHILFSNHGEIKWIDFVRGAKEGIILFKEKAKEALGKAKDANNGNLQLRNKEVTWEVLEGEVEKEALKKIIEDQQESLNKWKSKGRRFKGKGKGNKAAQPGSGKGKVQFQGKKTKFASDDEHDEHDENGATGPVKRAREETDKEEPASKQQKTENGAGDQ
# Mlp1 Q11A/Y14A = molecular target: T3, Mlp1 Q11A/Y14A (Tetrahymena thermophila, UniProt Q23RK6 1-340, Q11A;Y14A); assay: EMSA; EMSA: 20 mM Tris-HCl pH 7.4, 100 mM KCl, 1 mM EDTA, 5 mM beta-mercaptoethanol, 10% glycerol; ~0.1 nM RNA refolded from 95 C; 30 min at 30 C; 8% native PAGE at 4 C; conditions: protein: recombinant; tags: N-terminal 6xHis (pET28a)
# T3 sequence: T1 sequence with Q11A, Y14A
# Mlp1 1-250 = molecular target: T4, Mlp1 1-250 (Tetrahymena thermophila, UniProt Q23RK6 1-250); assay: as above; conditions: protein: recombinant; tags: N-terminal 6xHis (pET28a)
# T4 sequence: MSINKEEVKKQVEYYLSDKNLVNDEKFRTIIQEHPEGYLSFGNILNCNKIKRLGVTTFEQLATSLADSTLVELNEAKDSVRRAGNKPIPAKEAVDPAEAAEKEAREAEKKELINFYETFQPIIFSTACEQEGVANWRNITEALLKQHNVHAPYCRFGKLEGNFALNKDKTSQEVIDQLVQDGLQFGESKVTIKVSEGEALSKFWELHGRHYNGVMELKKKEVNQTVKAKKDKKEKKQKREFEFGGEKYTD
# Mlp1 95-250 = molecular target: T5, Mlp1 95-250 (Tetrahymena thermophila, UniProt Q23RK6 95-250); assay: as above; conditions: protein: recombinant; tags: N-terminal 6xHis (pET28a); label: 32P
# T5 sequence: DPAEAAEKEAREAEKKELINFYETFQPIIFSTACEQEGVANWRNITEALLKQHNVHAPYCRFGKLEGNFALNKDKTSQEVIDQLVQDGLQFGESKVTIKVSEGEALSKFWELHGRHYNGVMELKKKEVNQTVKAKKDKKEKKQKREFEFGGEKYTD
# Mlp1 1-95 = molecular target: T6, Mlp1 1-95 (Tetrahymena thermophila, UniProt Q23RK6 1-95); assay: as above; conditions: protein: recombinant; tags: N-terminal 6xHis (pET28a); label: 32P
# T6 sequence: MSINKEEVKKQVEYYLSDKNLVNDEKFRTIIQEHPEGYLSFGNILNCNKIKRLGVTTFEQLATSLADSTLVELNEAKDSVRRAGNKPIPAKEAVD
# [4] = label: 32P-UTP body label, tRNA fold
binder,measurement,setting,value
B1,Kd,Mlp1 [1]; label: 32P-UTP body label,658 ± 36 nM
B2,Kd,Mlp1 [1]; label: 32P-UTP body label,740 ± 40 nM
CUGCUGUUCU (ssRNA) [U-2C],binding result,Mlp1 [2],binds
CCCCCCCCCC (ssRNA) [C10],binding result,Mlp1 [3]; label: 32P,no binding
CUGCUGUCUU (ssRNA) [U-3C],binding result,Mlp1 [2],binds
B3,Kd,Mlp1 [1]; label: 32P-UTP body label,804 ± 16 nM
CUGCUGCCCC (ssRNA) [4C],binding result,hLa,no binding
B4,Kd,Mlp1 [1]; tRNA fold,714 ± 21 nM
B5,Kd,Mlp1 [1]; tRNA fold,831 ± 33 nM
CUGCUGUUUU (ssRNA) [4U (CUGCUGUUUU-3'OH)],binding result,Mlp1 Q11A/Y14A,no binding
same,binding result,Mlp1 [3],binds
same,binding result,Mlp1 1-250,binds
B6,Kd,Mlp1 [1]; [4],801 ± 62 nM
CUGCUGUUUC (ssRNA) [U-1C],binding result,Mlp1 [2],binds
CUGCUGUUUU (ssRNA) [uridylate RNA of Supplementary Fig. S4b],binding result,Mlp1 95-250,no binding
same,binding result,Mlp1 1-95,no binding
B7,Kd,Mlp1 [1]; [4],687 ± 44 nM
B8,Kd,Mlp1 [1]; tRNA fold,586 ± 15 nM
